Results published in US20260201038A1 (CELLABMED, published 2026).

What was measured:
[1] = target: T1, …; experiment: peptide microarray, 15-mers of human 4Ig B7-H3; panel Ig-like-V type 1
T1 sequence (peptide): EVQVPEDPVVALVGT

B7-H1 = B7-H1 (UniProt Q9NZQ7 19-239); experiment: indirect ELISA, B7-H1 coated at 1 ug/mL, absorbance at 450 nm
Procedure: [The procedure below names another target; the source lists this target under the same test.] The binding ability of 2D IgG prepared in Example 2 for recombinant B7-H3 protein was investigated by indirect ELISA. For indirect ELISA, recombinant human 4lg B7-H3, recombinant human 2lg B7-H3 and recombinant mouse B7-H3 were diluted respectively to 1 μg/mL in 50 μL of PBS and adsorbed overnight onto a 96-well immunoplate (Corning, USA) by storing at 4° C. After reaction with a buffer solution containing 3% bovine serum albumin at room temperature for 1 hour, followed by washing 3 times with a buffer solution containing 0.5% Tween 20, each well was treated with 50 μL of the antibodies diluted serially (0.0001, 0.0003, 0.001, 0.003, 0.01, 0.03, 0.1, 0.3, 1, 3 and 10 nM). For antigen-antibody binding, the mixture was reacted at room temperature for 2 hours, and then washed 3 times with a buffer solution containing 0.5% Tween 20. After treating each well with 50 μL of anti-human immunoglobulin Fc-HRP antibodies (Jackson Immunoresearch, USA) diluted to 1:3,000, reaction was conducted at room temperature for 1 hour. […] As a result of measuring absorbance at 450 nm using a spectrophotometer (Biotek, USA), it was confirmed that 2D IgG binds to B7-H3, and the binding ability was in the order of 4lg B7-H3, 2lg B7-H3 and mouse B7-H3 (FIG. 2a). […]

[2] = target: B7-H3 on human cancer cells (human) (UniProt Q5ZPR3); experiment: flow cytometry on HepG2K liver cancer cells; control (secondary antibody only) < 20%
[3] = target: B7-H3 on human cancer cells (human) (UniProt Q5ZPR3); experiment: flow cytometry on U251 brain tumor cells; control (secondary antibody only) < 10%
[4] = target: B7-H3 on human cancer cells (human) (UniProt Q5ZPR3); experiment: flow cytometry on MIA-PaCa2 pancreatic cancer cells; control (secondary antibody only) < 25%
[5] = target: B7-H3 on human cancer cells (human) (UniProt Q5ZPR3); experiment: cell-based or functional assay
FCLTGALEVQVPEDP = target: T2, FCLTGALEVQVPEDP; experiment: peptide microarray, 15-mers of human 4Ig B7-H3; panel Ig-like-V type 1
T2 construct: 15-mer of human 4Ig B7-H3 on the peptide microarray, panel Ig-like-V type 1
T2 peptide: FCLTGALEVQVPEDP
Procedure: (§1) It was confirmed that G2D IgG has linear epitopes since G2D was verified to recognize 4lg B7-H3 through western blot (FIG. 10a). Therefore, linear epitope mapping was conducted by Pepperprint GmbH (Germany). After preparing a peptide microarray from the 15 4lg B7-H3 amino acids with 14-amino acid overlaps, the antibodies binding to peptides were identified using secondary antibodies (FIG. 10b). As a result, it was confirmed that G2D IgG binds to a peptide having a sequence of EVQVP (FIG. 10c). EVQVP is located in the Ig-like V-type1 and Ig-like V-type2 domains of 4lg B7-H3 (FIGS. 10d and 10e). When the epitopes of the control antibody enoblituzumab were identified by the same method, it was confirmed that the epitopes include the sequence of GYPEAE (FIG. 10b), and GYPEAE is located in the Ig-like C2-type1 and Ig-like C2-type2 domains of 4lg B7-H3 (FIGS. 10d and 10e). As a result, it was confirmed that G2D IgG and the control antibody enoblituzumab have different epitopes.

TGALEVQVPEDPVVA = target: T3, TGALEVQVPEDPVVA; experiment: as above
T3 construct: 15-mer of human 4Ig B7-H3 on the peptide microarray, panel Ig-like-V type 1
T3 peptide: TGALEVQVPEDPVVA
Procedure: as §1

LEVQVPEDPVVALVG = target: T4, LEVQVPEDPVVALVG; experiment: as above
T4 construct: 15-mer of human 4Ig B7-H3 on the peptide microarray, panel Ig-like-V type 1
T4 peptide: LEVQVPEDPVVALVG
Procedure: as §1

CLTGALEVQVPEDPV = target: T5, CLTGALEVQVPEDPV; experiment: as above
T5 construct: 15-mer of human 4Ig B7-H3 on the peptide microarray, panel Ig-like-V type 1
T5 peptide: CLTGALEVQVPEDPV
Procedure: as §1

GALEVQVPEDPVVAL = target: T6, GALEVQVPEDPVVAL; experiment: as above
T6 construct: 15-mer of human 4Ig B7-H3 on the peptide microarray, panel Ig-like-V type 1
T6 peptide: GALEVQVPEDPVVAL
Procedure: as §1

ALWFCLTGALEVQVP = target: T7, ALWFCLTGALEVQVP; experiment: as above
T7 construct: 15-mer of human 4Ig B7-H3 on the peptide microarray, panel Ig-like-V type 1
T7 peptide: ALWFCLTGALEVQVP
Procedure: as §1

LWFCLTGALEVQVPE = target: T8, LWFCLTGALEVQVPE; experiment: as above
T8 construct: 15-mer of human 4Ig B7-H3 on the peptide microarray, panel Ig-like-V type 1
T8 peptide: LWFCLTGALEVQVPE
Procedure: as §1

LTGALEVQVPEDPVV = target: T9, LTGALEVQVPEDPVV; experiment: as above
T9 construct: 15-mer of human 4Ig B7-H3 on the peptide microarray, panel Ig-like-V type 1
T9 peptide: LTGALEVQVPEDPVV
Procedure: as §1

WFCLTGALEVQVPED = target: T10, WFCLTGALEVQVPED; experiment: as above
T10 construct: 15-mer of human 4Ig B7-H3 on the peptide microarray, panel Ig-like-V type 1
T10 peptide: WFCLTGALEVQVPED
Procedure: as §1

[6] = target: human 2Ig B7-H3 expressed on Raji cells (human) (UniProt Q5ZPR3); experiment: flow cytometry on Raji cells expressing 2Ig B7-H3; the vector control Raji cells show < 2%
Sequence of human 2Ig B7-H3 expressed on Raji cells (human) (Q5ZPR3 other isoform, or with tags, fused parts or gaps, form in doubt): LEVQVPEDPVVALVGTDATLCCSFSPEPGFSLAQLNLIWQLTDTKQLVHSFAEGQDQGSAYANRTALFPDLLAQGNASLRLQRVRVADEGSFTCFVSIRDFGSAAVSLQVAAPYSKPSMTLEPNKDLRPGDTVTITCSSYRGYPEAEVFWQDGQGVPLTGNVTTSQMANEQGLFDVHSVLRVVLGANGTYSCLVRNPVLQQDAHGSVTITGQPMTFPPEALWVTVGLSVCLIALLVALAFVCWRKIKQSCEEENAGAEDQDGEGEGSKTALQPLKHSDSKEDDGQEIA

[7] = target: B7-H3 on human cancer cells (human) (UniProt Q5ZPR3); experiment: flow cytometry on NCI-H1975 lung cancer cells; control (secondary antibody only) < 5%
[8] = target: B7-H3 on human cancer cells (human) (UniProt Q5ZPR3); experiment: flow cytometry on A2780 ovarian cancer cells; control (secondary antibody only) < 5%

Sequence of B7-H1 (Q9NZQ7 19-239 limits assumed): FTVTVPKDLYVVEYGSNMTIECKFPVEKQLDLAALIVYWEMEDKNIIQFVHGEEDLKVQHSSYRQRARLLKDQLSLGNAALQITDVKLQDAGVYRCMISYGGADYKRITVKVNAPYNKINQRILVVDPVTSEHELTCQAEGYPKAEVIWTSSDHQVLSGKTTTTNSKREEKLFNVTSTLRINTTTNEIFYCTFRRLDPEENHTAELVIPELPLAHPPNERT

fluorescence intensity of the peptide spot [1]: 16
binding result (B7-H1): no binding (tested: 10 nM)
% of cells in the positive gate [2]: > 95%
% of cells in the positive gate [3]: > 95%
% of cells in the positive gate [4]: > 95%
fluorescence intensity of the peptide spot (FCLTGALEVQVPEDP): 63
fluorescence intensity of the peptide spot (TGALEVQVPEDPVVA): 21
fluorescence intensity of the peptide spot (LEVQVPEDPVVALVG): 30.5
fluorescence intensity of the peptide spot (CLTGALEVQVPEDPV): 138
fluorescence intensity of the peptide spot (GALEVQVPEDPVVAL): 20
fluorescence intensity of the peptide spot (ALWFCLTGALEVQVP): 122
fluorescence intensity of the peptide spot (LWFCLTGALEVQVPE): 17.3
fluorescence intensity of the peptide spot (LTGALEVQVPEDPVV): 154
fluorescence intensity of the peptide spot (WFCLTGALEVQVPED): 24.8
% of cells in the positive gate (P3) [6]: > 40%
% of cells in the positive gate [7]: > 80%
% of cells in the positive gate [8]: > 95%
B1: G2D IgG (antibody, V domains shown)
VH: QVQLVESGGGLVQPGGSLRLSCSASGFDFSSYPMVWVRQAPGKGLEYVSSINSGGSWTGYGAAVKGRATISRDNSKNTLYLQMNSLRAEDTATYYCARAYGAATIDAWGQGTTVTVSS
VL: SYELTQPPSVSVSPGQTARITCSGGSIGYGWYQQKAPGQAPVTVIYYNDRRPSGIPERFSGSKSGTTNTLTISGVQAEDEADYYCGSADSSSTYTGIFGGGTKLTVL
notes: The back-substitutions (L46T, S66K, V71N in VL); also called humanized 2D; G2D antibody
T cell-mediated A549 cell-killing effect (GFP fluorescence of A549 cells after 48 h co-culture with activated PBMCs; negative control group = 100) [5]: 69.3
T cell-mediated cancer cell-killing effect as compared to the negative control group [5]: 30%
